In publication PMC7043342:
pKd: −log10 of the molar value.

Assays:
[1] = target: T1, SPD_1495 (Streptococcus pneumoniae D39) (UniProt A0A0H2ZL68); experiment: EMSA
T1 sequence: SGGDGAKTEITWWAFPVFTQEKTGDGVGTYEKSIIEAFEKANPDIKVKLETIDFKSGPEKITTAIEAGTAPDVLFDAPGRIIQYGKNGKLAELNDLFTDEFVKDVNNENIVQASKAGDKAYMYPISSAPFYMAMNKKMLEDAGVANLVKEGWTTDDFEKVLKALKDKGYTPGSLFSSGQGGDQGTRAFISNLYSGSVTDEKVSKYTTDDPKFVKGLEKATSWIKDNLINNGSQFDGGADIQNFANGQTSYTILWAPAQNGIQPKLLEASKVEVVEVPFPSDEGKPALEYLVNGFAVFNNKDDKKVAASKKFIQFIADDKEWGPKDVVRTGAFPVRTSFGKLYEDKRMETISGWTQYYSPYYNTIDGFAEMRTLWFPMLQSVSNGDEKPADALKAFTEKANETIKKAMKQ

[2] = target: SPD_1495 (33-442 AA), recombinant, GST tag removed (S. pneumoniae D39); experiment: SPR; SPD_1495 (30 ug/ml) fixed on a NanoGold-COOH sensor chip by capture coupling; ComE^D58E injected at 100, 200, 400, 800 and 1,600 nmol/liter in 0.01 M PBS; Open-SPR (Nicoya), 25°C; association and dissociation 300 s each; one-to-one diffusion-corrected model, TraceDrawer

For “TACACATCTGCTTCTAAAATATTGTTAGAAAACGATTTGACTGTCCTGATCAATTTGTCATGTTCTTATTTCATTTTACTATATTTTTGGTTCGCGGGAAGTCTACTAAGATACTTAAAGATGCAGATAGTGAAAAAAGGTGTAGACATTACCGTAAAAAAGTGATATAATCGTAAGATGTTCAATGTATAGGTGTTAATCATGAGTAGACGTTTTAA (double strand) [Bio-cps (cps upstream promoter)]”, which binding [1] is on record?
Its binding is “no binding”.

“ComE^D58E, phosphomimetic mutant of the response regulator ComE (natural protein)” was tested. Which pKd [2] did it give?
The pKd was 5.81.
